In patent publication US20220259318A1 (Hoffmann-La Roche, published 2022):

Assays:
[1] = molecular target: T1, human GPRC5D (human, UniProt Q9NZD1 1-345); test: flow cytometry on NCI-H929 cells; paragraph 550 says these values were falsely calculated by a factor of 10 (too low)
T1 construct: also called G protein-coupled receptor class C group 5 member D; hu GPCR5D
In short: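 Binding measured by flow cytometry on GPRC5D-expressing NCI-H929 myeloma cells and on CD3-expressing Jurkat NFAT-luciferase reporter cells. EC50 values derived from the binding curves.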

[2] = molecular target: T1, human GPRC5D; test: flow cytometry on NCI-H929 cells, assay replicate 3
Description: (§1) Cells were re-suspended in PBS at 0.5 Mio cells per ml. Next, 0.05 Mio cells were plated per well of a round-bottom 96-well-plate, centrifuged and supernatants were discarded. Cells were stained with zombie aqua viability stain (BioLegend #423102, pre-diluted 1:400), containing Fc blocking (BioLegend #422302, prediluted 1:400) for 20 minutes in a total volume of 50 ul per well. […] Assay plates were centrifuged and supernatants were discarded.
(§2) Thereafter, cells were resuspended by smooth vortexing and incubated for another 30 min at 4° C. in a total of 25 μl per well, containing 500 nM of the secondary antibody (aPGLALA mulG2b Alexa 647, produced inhouse) in FACS buffer. Cells were washed once and analyzed on a BD flow cytometer, equipped with FACS Diva. Binding curves and EC50 values were obtained using GraphPadPrism6. The EC50 values of assay replicate 1 correspond to the graphs shown in FIG. 25A, FIG. 25B and FIG. 25C. The EC50 values of assay replicate 2 correspond to the graphs shown in FIG. 25D, FIG. 25E and FIG. 25F. The EC50 values of assay replicate 3 correspond to the graphs shown in FIG. 25G, FIG. 25H and FIG. 25I.

[3] = molecular target: T2, human CD3 (human, UniProt P07766 23-207); test: flow cytometry on Jurkat-NFAT cells; paragraph 550 says these values were falsely calculated by a factor of 10 (too low)
T2 construct: Expressed on Jurkat-NFAT reporter cells as part of the TCR/CD3 complex; also called hCD3; CD3 epsilon
Description: To measure the binding to GPRC5D, we performed a flow cytometry-based binding assay on reported multiple myeloma cell lines (Lombardi et al., Molecular characterization of human multiple myeloma cell lines by integrative genomics: insights into the biology of the disease; Genes Chromosomes Cancer. 2007 March; 46(3):226-38). The cell line NCI-H929 (ATCC® CRL-9068) was cultured in RPMI 1640 with Glutamax medium (Gibco) supplemented with 10% FBS, 1× Penicillin/Streptomycin (Gibco), 1× Sodium Pyruvate (Gibco) and 50 μM beta-Mercaptoethanol (Gibco). Jurkat-NFAT reporter cells (a CD3-expressing human acute lymphatic leukemia reporter cell line with a NFAT promoter, GloResponse Jurkat NFAT-RE-luc2P, Promega #CS176501) were cultured in RPMI 1640, containing 2 g/l Glucose, 2 g/l NaHCO₃, 10% FCS, 25 mM HEPES, 2 mM L-Glutamine, 1×NEAA, 1× Sodium-pyruvate and 200 μg/ml Hygromycin B.
Flow cytometry acquisition was performed on a custom-designed BD Biosciences Fortessa and analyzed using BD Diva. EC50 values were calculated, using GraphPad Prism software.

[4] = molecular target: T1, human GPRC5D; test: flow cytometry on RPMI-8226 cells, assay replicate 3
Description: as §1, §2

[5] = molecular target: T1, human GPRC5D; test: cell-based or functional assay
[6] = molecular target: T1, human GPRC5D; test: flow cytometry on NCI-H929 cells, assay replicate 1
Description: as §1, §2

[7] = molecular target: T1, human GPRC5D; test: flow cytometry on RPMI-8226 cells, assay replicate 1
Description: as §1, §2

[8] = molecular target: T1, human GPRC5D; test: flow cytometry on NCI-H929 cells, assay replicate 2
Description: as §1, §2

[9] = molecular target: T1, human GPRC5D; test: flow cytometry on RPMI-8226 cells, assay replicate 2
Description: as §1, §2

[10] = molecular target: T1, human GPRC5D; test: flow cytometry on OPM-2 cells, assay replicate 2
Description: as §1, §2

[11] = molecular target: T1, human GPRC5D; test: flow cytometry on OPM-2 cells, assay replicate 1
Description: as §1, §2

[12] = molecular target: T1, human GPRC5D; test: cell-based or functional assay; remark: listed apart in the source
[13] = molecular target: T1, human GPRC5D; test: flow cytometry on OPM-2 cells, assay replicate 3
Description: as §1, §2

[14] = molecular target: T1, human GPRC5D; test: cell-based or functional assay; remark: listed apart in the source
[15] = molecular target: T1, human GPRC5D; test: cell-based or functional assay; remark: listed apart in the source

T1 sequence (Q9NZD1 whole entry): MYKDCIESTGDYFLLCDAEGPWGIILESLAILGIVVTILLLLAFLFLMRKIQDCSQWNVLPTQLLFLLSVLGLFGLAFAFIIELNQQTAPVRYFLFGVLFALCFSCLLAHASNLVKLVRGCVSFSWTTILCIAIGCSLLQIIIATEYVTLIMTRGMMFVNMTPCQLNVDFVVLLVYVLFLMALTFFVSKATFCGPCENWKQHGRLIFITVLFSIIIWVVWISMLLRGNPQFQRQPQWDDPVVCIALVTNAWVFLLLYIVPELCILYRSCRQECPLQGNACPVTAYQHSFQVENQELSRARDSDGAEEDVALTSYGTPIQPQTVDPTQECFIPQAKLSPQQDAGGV
T2 sequence (P07766 23-207 limits assumed): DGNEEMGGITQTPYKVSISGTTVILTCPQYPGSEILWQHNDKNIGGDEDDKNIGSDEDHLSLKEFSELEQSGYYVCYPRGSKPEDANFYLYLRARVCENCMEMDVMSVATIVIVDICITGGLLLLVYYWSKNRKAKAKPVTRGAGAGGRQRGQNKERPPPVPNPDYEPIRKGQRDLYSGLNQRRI

B1: 5E11(VH1c + VL2b)-C122-TCB (P1AE6625) (bispecific antibody, human IgG1, kappa, L234A L235A)
light 1: EIVLTQSPGTLSLSPGERATLSCRASQSVSISGINLMNWYQQKPGQQPKLLIYHASILASGIPDRFSGSGSGTDFTLTISRLEPEDFAVYYCQQTRESPLTFGQGTRLEIKRTVAAPSVFIFPPSDRKLKSGTASVVCLLNNFYPREAKVQWKVDNALQSGNSQESVTEQDSKDSTYSLSSTLTLSKADYEKHKVYACEVTHQGLSSPVTKSFNRGEC
light 2: EVQLLESGGGLVQPGGSLRLSCAASGFQFSSYAMNWVRQAPGKGLEWVSRIRSKYNNYATYYADSVKGRFTISRDDSKNTLYLQMNSLRAEDTAVYYCVRHTTFPSSYVSYYGYWGQGTLVTVSSASVAAPSVFIFPPSDEQLKSGTASVVCLLNNFYPREAKVQWKVDNALQSGNSQESVTEQDSKDSTYSLSSTLTLSKADYEKHKVYACEVTHQGLSSPVTKSFNRGEC
heavy 1: EVQLLESGGGLVQPGGSLRLSCAASGFTFSKYAMAWVRQAPGKGLEWVASISTGGVNTYYADSVKGRFTISRDNSKNTLYLQMNSLRAEDTAVYYCATHTGDYFDYWGQGTMVTVSSASTKGPSVFPLAPSSKSTSGGTAALGCLVEDYFPEPVTVSWNSGALTSGVHTFPAVLQSSGLYSLSSVVTVPSSSLGTQTYICNVNHKPSNTKVDEKVEPKSCDKTHTCPPCPAPEAAGGPSVFLFPPKPKDTLMISRTPEVTCVVVDVSHEDPEVKFNWYVDGVEVHNAKTKPREEQYNSTYRVVSVLTVLHQDWLNGKEYKCKVSNKALGAPIEKTISKAKGQPREPQVCTLPPSRDELTKNQVSLSCAVKGFYPSDIAVEWESNGQPENNYKTTPPVLDSDGSFFLVSKLTVDKSRWQQGNVFSCSVMHEALHNHYTQKSLSLSPGK
heavy 2: not shown
notes: 2+1 TCB: LC1 (anti-GPRC5D), LC2 (anti-CD3 crossed), HC1 Fc hole, HC2 Fc knob
EC50 [1]: 0.00115 µM | EC50 [2]: ~0.158 µM | EC50 [3]: 0.0115 µM | EC50 [4]: 0.055 µM | AUC, activation of Jurkat-NFAT reporter cells in presence of RPMI-8226 cells [5]: 572000 | EC50 (pM), activation of Jurkat-NFAT reporter cells in presence of RPMI-8226 cells [5]: 40 pM | EC50 [6]: 0.0758 µM | EC50 [7]: 0.0268 µM | EC50 [8]: ~0.123 µM | EC50 [9]: 0.0204 µM | EC50 [10]: 0.0755 µM | EC50 [11]: 0.0345 µM | EC50 (pM), activation of autologous T-cells (CD69 on CD8 T cells) with a primary MM sample [12]: 14.8 pM | EC50 [13]: 0.0542 µM | EC50 (pM), TCB-mediated tumor cell lysis, AMO-1 [14]: 8.3 pM | EC50 (pM), TCB-mediated tumor cell lysis, IM-9 [14]: 267 pM | EC50 (pM), TCB-mediated tumor cell lysis, LP-1 [14]: 7.99 pM | EC50 (pM), TCB-mediated tumor cell lysis, NCI-H929 [14]: 0.597 pM | AUC, TCB-mediated tumor cell lysis, AMO-1 [15]: 8.01e+07 | AUC, TCB-mediated tumor cell lysis, IM-9 [15]: 9.27e+06 | AUC, TCB-mediated tumor cell lysis, LP-1 [15]: 1.54e+07 | AUC, TCB-mediated tumor cell lysis, NCI-H929 [15]: 1.79e+07
